Results on 1 molecule are retold here after patent publication US20200181226A1 (UNUM THERAPEUTICS, published 2020).

Assay [1] deals with ACTR variant SEQ ID NO: 9. Briefly: cell-based or functional assay.
For assay [2], the target named is T1, ACTR variant SEQ ID NO: 9.
T1 construct: also called ACTR T cells; ACTR-expressing T cells
Briefly: apparent affinity; flow cytometry, rituximab titrated on ACTR-expressing T cells, anti-human Fc detection.

In assay [3] the target is T1, ACTR variant SEQ ID NO: 9. The assay can be described thus: flow cytometry titration of rituximab on T cells expressing ACTR variant SEQ ID NO: 9; bound rituximab detected with a fluorochrome-labeled anti-human Fc antibody.

T1 sequence (chain, as listed by the source mutant limits assumed): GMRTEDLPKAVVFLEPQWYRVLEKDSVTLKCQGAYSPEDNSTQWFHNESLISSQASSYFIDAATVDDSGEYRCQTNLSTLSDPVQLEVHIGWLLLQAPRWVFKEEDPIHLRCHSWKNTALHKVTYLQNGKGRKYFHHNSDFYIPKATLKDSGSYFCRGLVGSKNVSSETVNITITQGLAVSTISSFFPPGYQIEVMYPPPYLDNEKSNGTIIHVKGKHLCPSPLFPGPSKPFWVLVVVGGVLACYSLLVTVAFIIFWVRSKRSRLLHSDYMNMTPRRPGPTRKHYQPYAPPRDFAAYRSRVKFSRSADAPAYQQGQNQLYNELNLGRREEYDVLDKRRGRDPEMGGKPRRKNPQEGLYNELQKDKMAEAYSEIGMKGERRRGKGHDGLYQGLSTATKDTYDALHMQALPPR

B1: rituximab (antibody, V domains shown)
VH: QVQLQQPGAELVKPGASVKMSCKASGYTFTSYNMHWVKQTPGRGLEWIGAIYPGNGDTSYNQKFKGKATLTADKSSSTAYMQLSSLTSEDSAVYYCARSTYYGGDWYFNVWGAGTTVTVSA
VL: QIVLSQSPAILSASPGEKVTMTCRASSSVSYIHWFQQKPGSSPKPWIYATSNLASGVPVRFSGSGSGTSYSLTISRVEAEDAATYYCQQWTSNPPTFGGGTKLEIK
B1: the “EC50 (µg/mL) of cytotoxicity, Raji Target Cells + Rituximab” value in assay [1] worked out at 0.07 µg/mL. Also, the Kd in assay [2] was 689 nM. Also, in assay [3], the “EC50 (read off the curve)” value was around 700 nM.
